Test results from patent publication US20220186223, “T-LYMPHOCYTE BINDING APTAMERS” (Aummune Ltd., published 2022).

Target: CD3 epsilon (CD3ε), recombinant extracellular Fc chimera (Homo sapiens, UniProt P07766 P07766:23-126)
Test: HPLC size exclusion shift, 1 hr 37 C and 4 C
Details: tags: Fc chimera, His tag; Abcam ab220590; label: Cy5 via hybridised CpG'-Cy5 complementary strand
Experimental: 1 μM of folded Cy5 labeled aptamer was mixed with 50 µL of protein to a final volume of 60 ul and incubated for 1 hr at 4° C. or 37° C. Next, to detect the Cy-labelled aptamers, samples were analyzed at 570 nm absorption via HPLC ProSEC 300S size exclusion column (Agilent).
Top five candidates (CS6, CS7, CS8, CS8c, and CS9 SEQ ID NO. 1-5) were synthesized with a 5(5′) phosphothioated CpG motif and assayed for Human CD3ε (hCD3ε) binding via the HPLC size exclusion column. In this method, the aptamers were labelled with Cy5 complementary sequence to the CpG site (Cy5-CpG′). Then, the folded-labelled candidates are incubated, each, with the CD3ε- recombinant protein or with negative control IgG1 (1 hr at 37° C. and 4° C.) and analyzed by HPLC ProSEC 300S size exclusion column (Agilent) at 570 nm absorption. Upon protein binding, the aptamer-protein complex has a greater mass than a free aptamer and as a result, the retention time (RT) at the column is expected to be shorter. Inversely, in the case of non-binding aptamer, the RT in the presence of protein will be the same as in the absence of the protein. As a control, PolyT sequence was used.

Sequence of CD3 epsilon (CD3ε), recombinant extracellular Fc chimera (P07766 23-126, change not shown, one chain of several): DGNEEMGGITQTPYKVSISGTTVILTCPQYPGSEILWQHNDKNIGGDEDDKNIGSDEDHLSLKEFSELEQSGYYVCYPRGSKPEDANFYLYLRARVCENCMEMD

| Binder | binding result |
| --- | --- |
| CCCTTACCCCTTTTAGGTCTGCTTAGGATTGCGAAAAAAG (ssDNA, synthesized with 5' CpG motif having 5 PS linkages (extension not in ref)) [CS8] | binds |
| CATTTCATAGGGCTGCTTAGGATTGCGAAGGTAATGCCAG (ssDNA, synthesized with 5' CpG motif having 5 PS linkages (extension not in ref)) [CS7] | binds |
| CTTTTAGGTCTGCTTAGGATTGCGAAAAAAG (ssDNA, synthesized with 5' CpG motif having 5 PS linkages (extension not in ref)) [CS8c (CS8cut)] | binds |
| TTGTAAGGACTGCTTAGGATTGCGAAAACAATATTCGTAT (ssDNA, synthesized with 5' CpG motif having 5 PS linkages (extension not in ref)) [CS9] | binds |
